B1: M3 (antibody, human IgG1, lambda, V domains shown)
VH: QLQLQESGPGLVKPSETLSLTCTVSGGSISSSSYYWGWIRQPPGKGLEWIGSIYYSGSTHYNPSLKSRVTISVDTSKNQFSLKLRSVTAADTAVYYCARGVVEVRGNHYYYYYMDVWGKGTTVTVSS
VL: QSVLTQPPSVSGAPGQRVTISCTGSSSNIGAGYDVHWYQQLPGTAPKLLIYGNSYRPSGVPDRFSGSKSGTSASLAITGLQAEDEADYYCQSYDSSLSGSGVFGGGTKLTVLG
B2: M7 (antibody, human IgG1, kappa, V domains shown)
VH: EVQLVESGGGLVQPGGSLRLSCAASGFTVSSNYMSWVRQAPGKGLEWVSVIYSGGSTYYADSVKGRFTISRDNSKNTLYLQMNSLRAEDTAVYYCARGSTNTYYYDSSGHPWGQGTMVTVSS
VL: DIVMTQSPLSLPATPGEPASISCRSSQSLLHSNGYTYLDWYLQKPGQSPQVLIYLASNRASGVPDRFSGSGSGTNFTLKISRVEAEDVGLFYCMQALQTPQTFGQGTKLEIKR
B3: M20 (antibody, human IgG1, kappa, V domains shown)
VH: EVQLVESGGGLVQPGGSLRLSCAASGFTFSSYWMHWVRQAPGKGLVWVSHINSDGSSTSYADSVKGRFTISRDNAKNTLYLQMNSLRAEDTAVYYCARELADWGQGTLVTVSS
VL: DVVMTQSPLSLPVTLGQPASISCRSSQSLVYSDGNTYLNWFQQRPGQSPRRLIYQVSNRDSGVPDRFSGSGSGTDFTLKIGRVEAEDVGVYFCMQGTHWPWTFGQGTKVEIKR
B4: M21 (antibody, human IgG1, kappa, V domains shown)
VH: EVQLVESGGGLVQPGGSLRLSCAASGFTVSSNYMSWVRQAPGKGLEWVSVIYSGGSTYYADSVKGRFTISRDNSKNTLYLQMNSLRAEDTAVYYCARDQEHYFDGSGYYVDYWGQGTLVTVSS
VL: B3 VL
B5: M22 (antibody, human IgG1, kappa, V domains shown)
VH: EVQLVESGGGLVQPGGSLRLSCAASGFTVSSNYMSWVRQAPGKGLEWVSVIYSGGTTYYADSVKGRFTISRHNSKNTLYLQMNSLRAEDTAVYYCARDHDPDYGGYYMDVWGKGTTVTVSS
VL: B3 VL

Legend:
[1] = target: Normal MUC1 on non-transformed MCF-10A cells and on normal tissue (human) (UniProt P15941); assay: flow cytometry, MCF10a cells
BSA = BSA (UniProt P02769); assay: ELISA on coated BSA, antibody 0.01 mg/ml, mean of 3
Sequence of BSA (P02769 25-607 limits assumed): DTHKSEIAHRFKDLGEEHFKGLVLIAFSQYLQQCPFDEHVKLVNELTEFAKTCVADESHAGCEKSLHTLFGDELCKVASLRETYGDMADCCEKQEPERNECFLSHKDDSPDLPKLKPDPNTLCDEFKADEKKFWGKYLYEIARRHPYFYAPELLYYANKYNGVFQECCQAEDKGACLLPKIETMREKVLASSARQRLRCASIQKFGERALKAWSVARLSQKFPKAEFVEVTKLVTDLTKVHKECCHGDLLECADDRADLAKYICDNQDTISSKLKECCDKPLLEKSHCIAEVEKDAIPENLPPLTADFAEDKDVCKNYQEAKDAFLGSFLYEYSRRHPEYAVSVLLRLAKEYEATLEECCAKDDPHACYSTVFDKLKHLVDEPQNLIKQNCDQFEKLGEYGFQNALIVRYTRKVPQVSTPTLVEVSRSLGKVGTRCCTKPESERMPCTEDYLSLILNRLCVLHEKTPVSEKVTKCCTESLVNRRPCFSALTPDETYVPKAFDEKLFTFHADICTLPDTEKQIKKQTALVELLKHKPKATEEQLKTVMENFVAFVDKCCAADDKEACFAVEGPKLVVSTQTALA

[2] = target: SEQ ID NO: 346 glycopeptide with TF-antigen at Thr16; assay: ELISA on coated glycopeptide, antibody 0.01 mg/ml, mean of 3
[3] = target: SEQ ID NO: 346 glycopeptide with Tn-antigen at Thr4, Thr9 and Thr16; assay: as above

Row | percentage of APC+ stained cells [1] | ELISA absorbance at 450 nm (BSA) | ELISA absorbance at 450 nm [2] | ELISA absorbance at 450 nm [3] | Binder
1 | 3.14% | 0.1 absorbance | – | – | B1
2 | 0.95% | 0.1 absorbance | – | – | B2
3 | 4.45% | 0.1 absorbance | 0.1 absorbance | 0.1 absorbance | B3
4 | 2.67% | 0.1 absorbance | 0.1 absorbance | 0.1 absorbance | B4
5 | 2.17% | 0.1 absorbance | 0.1 absorbance | 0.1 absorbance | B5

— patent publication US20160145343A1
